Measurements from publication PMC3088832.

Target: Purified recombinant HIV gp120, biotinylated (HIV) (UniProt P04578)
Experiment: SPR

In the case of “soluble recombinant human DC-SIGN extracellular domain (from UniProt Q9NNX6 59-404) (domain or fragment)”, the percent less binding in 20 mM glucose than in 5 mM glucose is reported as 33%.
